B1: Erythropoietin receptor (Homo sapiens), P19235 (parent)
chain: MDHLGASLWPQVGSLCLLLAGAAWAPPPNLPDPKFESKAALLAARGPEELLCFTERLEDLVCFWEEAASAGVGPGNYSFSYQLEDEPWKLCRLHQAPTARGAVRFWCSLPTADTSSFVPLELRVTAASGAPRYHRVIHINEVVLLDAPVGLVARLADESGHVVLRWLPPPETPMTSHIRYEVDVSAGNGAGSVQRVEILEGRTECVLSNLRGRTRYTFAVRARMAEPSFGGFWSAWSEPVSLLTPSDLDPLILTLSLILVVILVLLTVLALLSHRRALKQKIWPGIPSPESEFEGLFTTHKGNFQLWLYQNDGCLWWSPCTPFTEDPPASLEVLSERCWGTMQAVEPGTDDEGPLLEPVGSEHAQDTYLVLDKWLLPRNPPSEDLPGPGGSVDIVAMDEGSEASSCSSALASKPSPEGASAASFEYTILDPSSQLLRPWTLCPELPPTPPHLKYLYLVVSDSGISTDYSSGDSQGAQGGLSDGPYSNPYENSLIPAAEPLPPSYVACS
partner: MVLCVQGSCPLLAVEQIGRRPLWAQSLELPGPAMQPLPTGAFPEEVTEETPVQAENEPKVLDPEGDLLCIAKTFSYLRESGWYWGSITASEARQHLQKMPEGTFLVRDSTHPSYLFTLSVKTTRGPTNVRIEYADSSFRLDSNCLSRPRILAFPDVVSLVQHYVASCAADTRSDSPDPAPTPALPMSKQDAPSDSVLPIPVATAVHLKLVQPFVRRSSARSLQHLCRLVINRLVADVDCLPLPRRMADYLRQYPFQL
B2: Erythropoietin receptor (Homo sapiens), P19235 (parent)
chain: B1 chain
partner: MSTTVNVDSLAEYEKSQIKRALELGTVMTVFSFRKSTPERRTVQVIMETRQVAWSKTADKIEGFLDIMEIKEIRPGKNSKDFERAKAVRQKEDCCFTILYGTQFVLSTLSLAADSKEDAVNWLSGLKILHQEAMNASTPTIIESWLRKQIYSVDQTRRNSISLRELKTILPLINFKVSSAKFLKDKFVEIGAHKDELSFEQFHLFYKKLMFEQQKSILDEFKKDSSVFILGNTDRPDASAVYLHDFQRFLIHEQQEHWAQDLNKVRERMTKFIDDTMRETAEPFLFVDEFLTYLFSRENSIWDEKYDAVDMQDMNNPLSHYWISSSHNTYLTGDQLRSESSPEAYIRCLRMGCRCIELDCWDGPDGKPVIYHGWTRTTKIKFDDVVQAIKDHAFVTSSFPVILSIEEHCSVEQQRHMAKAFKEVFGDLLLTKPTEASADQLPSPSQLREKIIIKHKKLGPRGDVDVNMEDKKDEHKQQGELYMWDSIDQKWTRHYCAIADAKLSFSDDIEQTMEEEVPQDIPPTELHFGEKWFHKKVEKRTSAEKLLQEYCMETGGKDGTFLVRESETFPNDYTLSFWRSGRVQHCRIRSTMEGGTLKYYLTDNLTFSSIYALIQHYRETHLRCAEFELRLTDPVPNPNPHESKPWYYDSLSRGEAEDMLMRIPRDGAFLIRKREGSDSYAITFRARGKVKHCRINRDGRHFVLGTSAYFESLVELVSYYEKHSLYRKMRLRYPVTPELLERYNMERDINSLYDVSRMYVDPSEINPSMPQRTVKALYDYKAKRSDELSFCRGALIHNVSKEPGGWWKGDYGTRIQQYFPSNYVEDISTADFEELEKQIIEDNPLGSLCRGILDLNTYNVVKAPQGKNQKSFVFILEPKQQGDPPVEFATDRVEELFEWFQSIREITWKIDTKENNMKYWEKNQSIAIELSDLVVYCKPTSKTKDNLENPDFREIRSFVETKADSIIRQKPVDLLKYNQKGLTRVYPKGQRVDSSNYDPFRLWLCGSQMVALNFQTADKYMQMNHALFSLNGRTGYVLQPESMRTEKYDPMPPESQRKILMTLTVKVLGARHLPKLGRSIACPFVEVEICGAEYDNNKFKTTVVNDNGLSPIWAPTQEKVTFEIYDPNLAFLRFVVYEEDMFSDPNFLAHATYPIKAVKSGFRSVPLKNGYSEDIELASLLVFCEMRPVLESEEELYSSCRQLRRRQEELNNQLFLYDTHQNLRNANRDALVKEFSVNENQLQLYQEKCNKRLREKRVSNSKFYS
B3: Erythropoietin receptor (Homo sapiens), P19235 (parent)
chain: B1 chain
partner: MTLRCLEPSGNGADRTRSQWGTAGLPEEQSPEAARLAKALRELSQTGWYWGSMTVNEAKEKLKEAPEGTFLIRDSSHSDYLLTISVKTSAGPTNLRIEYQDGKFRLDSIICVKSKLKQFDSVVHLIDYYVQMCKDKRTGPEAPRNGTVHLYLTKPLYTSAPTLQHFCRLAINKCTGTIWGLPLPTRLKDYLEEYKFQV
B4: 1-phosphatidylinositol 4,5-bisphosphate phosphodiesterase gamma-2 (Homo sapiens), P16885 (parent)
chain: B2 partner
partner: B1 chain

Variants of B1 are the subject of the first assay. As to conditions: with cish_mouse Cish.
With Y454F, the “effect of a mutation on the interaction” value is on record as “decreasing interaction”.

Variants of B1 are the subject of another assay. The settings on record: with cish_mouse Cish. This is another data set of the same source.
As for Y426F, the “effect of a mutation on the interaction” value is “decreasing interaction”.

The variants in a further assay derive from B2. As to conditions: with plcg2_human PLCG2, P16885.
For the variant Y456F, the “effect of a mutation on the interaction” value was “decreasing interaction”.

Take Y504F: the “effect of a mutation on the interaction” value is “decreasing interaction”.

Variants of B3 are the subject of the next assay. As to conditions: with socs2_mouse Socs2, O35717.
For Y426F, the “effect of a mutation on the interaction” value is listed as “decreasing interaction”.

In a further assay the parent is B4. The settings on record: with epor_human EPOR.
K367F: the “effect of a mutation on the interaction” value is on record as “decreasing interaction”.

The record behind these values is IntAct's records for PubMed 15644415.
